Test: yeast display, Sf9 membrane polyspecificity reagent, FACS + sequencing; frameworks hold sequencing errors
In short: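 Using colony PCR, genes from sorted yeast display clones were amplified, then sequenced on MiSeq at 2 × 250 and filtered by CDR length. The clones had been stained with 10% biotinylated, detergent-solubilized Sf9 membrane reagent for 1 hour at 4 °C and sorted by FACS into low and high (top ~1%) gates on anti-HA and streptavidin fluorescence. Polyreactivity labels come from the gate of origin.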

Row | Sequence | polyreactivity (PSR sort gate)
1 | QDQLVETGGGLVQAGVSLRISCAASGSTFYYNAMGWYRQAPGKERELVAAITWSGDSTYYADSVKGRFTISRDNAKNTVYLQMNSLKPEDTAVYYCNAEYYDYFDYVSDYWGQGTQVTVSS | low polyreactivity
2 | QDQLVVSGGGLVHAGGSLRLSCAASGRIFHAYGMGWYRQAPGQERELVAAITWRGVSTYYADSVKGRFTISRDNAKNTVYLQMNSLKPEDTAVYYCAARVTPGRNGGGYWGQGTQVTVSS | high polyreactivity
3 | QEQLEESGGGLVQAGGSLRLSCAASGFTLGRYAMGWYIQAPGKERELVAAINSSGGRTYYADSVNGRFTISRDTAKNTVYLQLNSLKPEDTAVYYCATVNVRGPPYDFWGQGTQVTVSS | high polyreactivity
4 | QEQLHESGGGLVQAGGSLRLSCAASGTISYAGPIGWDRQAPGKAREFVAGIGVGSNTNYADSVKGRFTIIRDNAKNTVYLQMNSLKPEDTAVYYCAVGGYAPLGRPYWGQGTQVTVSS | low polyreactivity
5 | QEQLQESGGGLVQAGGSLRLSCAASGYISQSSVMGWYRQAPGKEREFVASISYGATTYYADSVKGRFTISRDNAKNTVYLQTNSRKPEDTAVYYCAVWVKRGFSHRYWGQGTQVTVSS | high polyreactivity
6 | QEQLQESGGGQVQAGGSLLLSCAASGNIIRYYYMGWYRQAPGKERELVAAITYGTSTNDADSVKGRFTISRDNAKNTVYLQMNSLKPEDTAVYYCAVDVNYGDPLDNWGQGTQVTVSS | high polyreactivity
7 | QEQLQESGGGQVQAGGSLLLSCAASGNIIRYYYMGWYRQAPGKERELVAAITYGTSTNYADSVKGRFTIRRDNAKNTVYLQMNSLKPEDTAVYYCAVDVNYGDPLDNWGQGTQVTVSS | high polyreactivity
8 | QEQLQESGSGLVQAGGSLRLSCAASGNIFRDWVMGWYRQAPGKERELVAAISPGAITYYADSVKGRFTISRDNAKNTVYLQTNSLKPEDTEVYYCAAYYIVEYLHGYWGQGTRVTVSS | low polyreactivity
9 | QEQLQESGSGLVQAGVSLRLSSAASGNIVQDWVMGWYRQAPGKERELVAAISPGAITYYADSVKGRFTISSDNAKNTVYLQTNRLNPEDTAVYYCAAYYIVEFLHGYWGQGTRVTVSS | low polyreactivity
10 | QEQLQGSGGGLVQAGGSLRLTCAASGYIFQNVPMGWNRQAPGKERQLLAGIDNGTSTNYADSVNGRFTISRDNAKNTVYLQMNSLKPEDTAVYYCAAAGQADDTLGYWGQGTQVTVSS | low polyreactivity
11 | QEQLVESGGGLVQAGGSLRLSCAATGLTITDYAMGWYRQAPGKERELDAGINTRGTSRYSADSVKGRFTISRDNAKNTVYFQMFSLNPEDTAVYYCDSEYFGYWYGIQYDYWGQGTQVTVSS | high polyreactivity
12 | QEQLVESGGGLVQAGGTLRLSSAASVNTISPNAMGWYRQPPGKERELVAAIDSRDGIRYYADSVKGRFTISRDNAKNTVYLQMNSLKPEDTAVYYCAPDEWYGESNYWGQGTQVTVSS | low polyreactivity
13 | QFHLVESGGGLVQAGGSLRLSCAASGSNILYYVMGWYRQAPRKERELVAAITWDGGSTYYADSVKGRFTISRDNAKNTVYLELNSLIPEDTAVYYCNKVTTYSYYTEPYEYWGQGTQVTVSS | low polyreactivity
14 | QFHLVESVGGLFQAGGSLRLSSAASGRNFSIYAMGWYRQAPGKERELVAAISWSGGRTYYADSVKGRFTISRDTAKNTVYLQMNSLKPEDTAVYYCNAENGWADYYRSDYWGQGTQVTVSS | high polyreactivity
15 | QFQIVESGGGLVQAGGSLRISCAASVFIFARYAIGWYRQAHGKEREFVAAISSSGGSTYYADSVKGRFTISRDNAKNTVYLQMNSLKPADTAVYYCNVRLRIRSGYWGQGSQVTVSS | high polyreactivity
16 | QFQIVESGGGLVQAGGSLRLSCASSGLIFYKYAMGWYRQAPGKERELVARISYTGGITSYADSVKGRFTISRDNAKNTVYLQMNSLKPEDTAVYYCAARYTRPFGPFDYWGQGTQVTVSS | low polyreactivity
17 | QFQLEESGGGLVQAGGSLRLSCAASGSTFWYNAMGWYRQAPGKERELVAAISRSGATTYYADSVKGRFTISRDNAKNTVYLQMNSLKPEDTAVYYCNAVISPSSYVRNSDYWGQGTQVTVSS | low polyreactivity
18 | QFQLEESGRGLVQAGGSLRLSCAASGRIFRYYAMGWYRQAPGKERELVAGISWRGSSTYYADSVKGRFTISRDNAKNTVYLQMNSLKPEDTAVYYCAARKASGRFGYWGQGTQVTVSS | high polyreactivity
19 | QFQLEESRRGLDQAGGSLRLSCAASGSIFTLYDMGWYRQAPGKERELVAAITSGGSTDYADSVKGRFTISRDKAKNTVFLQMNSLKPEDTAVYYCAADTFYIYEDVLYVQGDYYWGQGTQVTVSS | low polyreactivity
20 | QFQLGESVGGLVQAGGSLRLSCAGYGSIFLGKAMGWYREATGKEMEFVDAIRISGGSTYYADSVKGRFTISRDNAQYTVYIQMNILKPEDTAVYYCAKFGPRASLYRTGRYYWGQGTQVTVSS | high polyreactivity
21 | QFQLLESGRGLVQAGGSLRLSCAASGRTYNVNAMGWYRKAPGKERELVASISSGTSTNYADSVKGRFTITRDNAKNTVYLQLNRLNREDTAVYYCNADFVWNGYSGRIRDYYWGQATQVTVSS | low polyreactivity
22 | QFQLVDSGGGLVQAGGSLSLICAASGLIFYTYAMGWYRQAPGKERELVAAISRTRVSTYYADSVKGRFTISRDNAKNTVYLQMNSLKPEYTAVYYCATSRYLKLGYDYWGQGTQVTVSS | high polyreactivity

Row | Sequence | polyreactivity (PSR sort gate)
23 | QFQLVDSGGSLVQAGSSLPLSCPASGRTFPYNVMGWYRQAPGKERELFASIDGSGGSTYYADSVKGRFTISRDYAKNTVYLQMNSLNPVDTAVYYCAAVYYQSGNYWYGYLGQSPYDYWGLGTQVTVSS | low polyreactivity
24 | QFQLVEAGGGLVQAGGSLRLSCAASGSIFTYAMGWYRQAPGKEREFVAAISRSGGRTYYADSVKGRFTMSRDNAKNTVYFQMNSLKPDDTAVYYCAPLLLKDYDYWGQGTQVTVSS | low polyreactivity
25 | QFQLVESGGGLDQAGGSLRLSCAASGITVYYYALGCYRQAPGKERELVAAITSSGGSTYYADSVKGRFTISRDNAKNTVYLQMNSLKPEDTAVYYCAARSYRGSSTYQGHGYWGQGTQVTVSS | high polyreactivity
26 | QFQLVESGGGLDQAGGSLRLSCAASGSIFSYYDMGGDRQAPGKDRELVAGNSRGGSTNYADSVKGRFTISRDNAKKTVYLQMNSLKPEDTAVYYCNADQSSRTYPFRLSRRSWLYGYWGQGTQVTVSS | low polyreactivity
27 | QFQLVESGGGLDQARGSLRLTCAASGSIFARNAMGWYRQAPGKERELVAAITYSGGNTYYADSVKGRFTISRDNAKNTVYLQMNSLKPEDTAVYYCNKDWYPTYAAYNYYYWGQGTQVTVSS | high polyreactivity
28 | QFQLVESGGGLFQAGARLRLSSAASGNIFNWYALGLYRQAPGKEREFVACISTSGGSTYYADSVKGRFTISRDNAKNSVYLQMNSLKPEDTAVYYCNAKFFVYECLPGPSYWYDYWGQGTQVTVSS | high polyreactivity
29 | QFQLVESGGGLFQAGGILRLSCAASGRNFLYNAMGWDRQAPGKERELVAAISSRGARTYYADSVKGRFTISRDNAKNTVYFQMNSLKPEDTAVYYCATDSYRYDGIQYLYEYYYWGQGTQVTVSS | high polyreactivity
30 | QFQLVESGGGLLQAGGSLRLSCAASGSTFYRYVMGWYRQATGKERELVAAITWRGGTTYYADSVKGRFTISRDNAKNTVYLKMISLKPDDTAVYYCNADRGGLRWFWQVLYDYWGQGTQVTVSS | low polyreactivity
31 | QFQLVESGGGLVQAGGSHRLICAASGRTFPYYAKGWYRQAPGKERELVATINTGTSTNYADSVKGRFTISRDNANNTVYLQMHSLKPEDTAVYYCAAATTYGKSEYDYWGQGTQVTVSS | high polyreactivity
32 | QFQLVESGGGLVQAGGSLGLSCAASGRSFAQYTMGWYRQAPGKERELVAAISWSGTSTYYADSVKGRFTISRDNAKNTVSLQMNSLKPEDTAVYYCAALGRYSVEYGYWGQGTQVTVSS | high polyreactivity
33 | QFQLVESGGGLVQAGGSLRISCAASGSIFRRYAMGWYRQAPWKERELVATISSGTTTNYADSVKGRFTISRDNANNSVYLQLNSLKPEDTSVFYCAAVVYGHIRGPGERKSYWGQGTQVTVSS | high polyreactivity
34 | QFQLVESGGGLVQAGGSLRISCDASGRTFWYYTMGWYRKAPGKERELVASITYRGGSTYYADSVKGRFTISRDNAKNTVYLQMNSLKPEDTAVYYCNKPYFTASGDRFGYWGQGTQVTVSS | low polyreactivity
35 | QFQLVESGGGLVQAGGSLRLSCAASAGNFNRYAMGWYRQAPGKEMELVAAISSSGGPTYYADSVKGRFTISRDNAKNTVYLQMNSLKPEDSAVYYCNARYPRLHRTYNYWGQGTQVTVSS | high polyreactivity
36 | QFQLVESGGGLVQAGGSLRLSCAASARTFVSNAMGWDRQAPGKERELVADITSGGSTDYADSVKGRFTSSRDNAKNTVYVQMNSVKPEDTAVSYCATDLWRWYGWFDYWGQGTQVTVSS | low polyreactivity
37 | QFQLVESGGGLVQAGGSLRLSCAASASTYYYYVMGWSIQAPVKEREVVAAITRSTGSTYYADSVKGRFTISRDNAKNTVYLNKNSLKPEETSVYYCAAEGPKWYYSGAFDYWGQGSQVTVSS | low polyreactivity
38 | QFQLVESGGGLVQAGGSLRLSCAASGFIFTNVMGWYRQSPGKERELVAAISGRGTSTYYADSVKGRFTISRDNAKNTVYLQMNSLKPEDTAVYYCAAYFTSRLDYWGQGTQVTVSS | high polyreactivity
39 | QFQLVESGGGLVQAGGSLRLSCAASGIISSVYAMGWYRQAPGKERELVAAISGSGGSTYYADSVKGRFTISRDNAKNTVYLQMNSLKPEDTAVYYCAKGYQYQGNSYGYWGQGTQVTVSS | low polyreactivity
40 | QFQLVESGGGLVQAGGSLRLSCAASGITFDVNAMGCYIQAPGKERELVASITAGGNTYYSDSVKGRFTISRDNAKNTVYLQMNSLKPVDTAVYFCAAVSTSLYCAGYDYWGQGTQVTVSS | low polyreactivity
41 | QFQLVESGGGLVQAGGSLRLSCAASGITFGDNAMGWYRQAPGKERELVAAISWSGDRTFYADSVKGRFTISRDNAKNTVYLQMNSLKPEDTAVYYCNAEIGWHNEGRLSTYDYWGQGTQVTVSS | low polyreactivity
42 | QFQLVESGGGLVQAGGSLRLSCAASGITFRAYAMGWYRQAPGKERELVAAITGRFGRTYYADSVKGRFTISRDNENNSVYLQMNSLKPEDTAVYYCNAYLWRVTQTYDYWGQGTQVTVSS | high polyreactivity
43 | QFQLVESGGGLVQAGGSLRLSCAASGLIFVYNDMGWYRQAPGKETELVAGITGTGGNTYYADSVKGRFTISRDNEKNTVYLQMNSLKPEDTAVYYCAASHTSYYLRYGYWGQGTQVTVSS | high polyreactivity

Reference: the nanobody polyreactivity screen of Harvey et al. (2022)
